From CN113637074A (SHANGHAI HUAIYUE BIOTECHNOLOGY CO LTD, dated 2021) come the findings set out here.

For one test, the target named is T1, 带His标签的NKp44蛋白 (human, UniProt O95944 22-190, limits assumed).
T1 construct: also called 人NKp44; not shown: His tag
T1 sequence (looked up): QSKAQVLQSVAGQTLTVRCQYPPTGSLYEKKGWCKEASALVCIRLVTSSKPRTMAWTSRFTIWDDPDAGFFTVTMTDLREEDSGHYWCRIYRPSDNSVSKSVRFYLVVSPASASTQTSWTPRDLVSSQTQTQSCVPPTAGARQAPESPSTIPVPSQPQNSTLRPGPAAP
Nature of the test: ELISA, His-tagged protein coated at 1 μg/ml, anti-human IgG Fc-HRP. (In general: An ELISA detects its analyte on a solid surface through an enzyme-linked reagent.)

The target of the next test is T2, 带His标签的NKp30蛋白 (human, UniProt O14931 19-138, limits assumed).
T2 construct: also called 人NKp30; not shown: His tag
T2 sequence (looked up): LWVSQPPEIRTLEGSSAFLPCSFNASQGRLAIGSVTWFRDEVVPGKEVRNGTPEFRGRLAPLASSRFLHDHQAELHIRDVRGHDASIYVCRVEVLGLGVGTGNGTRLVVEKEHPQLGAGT
The test is described as above.

B1: NKp46-1 (antibody, V domains shown)
VH: QVQLVQSGAEVKKPGSSVKVSCKASGGTFSNYGISWVRQAPGQGLEWIGRIIPYFGITNYAQKFQGRVTITADKSTSTAYMELSSLRSEDTAVYYCADNHLLRPGQNYYPWDYWGQGTTVTVSS
VL: DIQMTQSPSSLSASVGDRVTITCRASQGISNALAWYQQKPGKAPKLLIYAASRLESGVPSRFSGSGSGTDFTLTISSLQPEDFATYYCQQHYSTPPTFGQGTKVEIK
notes: Lead antibody from a human common light chain phage library; also called Ab-1; 孔A5
As for B1, the binding result with 带His标签的NKp44蛋白 and with 带His标签的NKp30蛋白 was “no binding (tested: 10μg/ml)” each time.
